# Patent US20040001822A1, “Y1-isolated molecules comprising epitopes containing sulfated moieties, antibodies to such epitopes, and uses thereof” (priority 2000, published 2004)
# B1: Y1 scFv: fully human scFv clone binding platelets and myelogenous leukemia cells, SEQ ID NO: 25 (protein, listed as Homo sapiens)
# scFv: MKYLLPTAAAGLLLLAAQPAMAEVQLVESGGGVVRPGGSLRLSCAASGFTFDDYGMSWVRQAPGKGLEWVSGINWNGGSTGYADSVKGRFTISRDNAKNSLYLQMNSLRAEDTAVYYCARMRAPVIWGQGTLVTVSRGGGGSGGGGSGGGGSSELTQDPAVSVALGQTVRITCQGDSLRSYYASWYQQKPGQAPVLVIYGKNNRPSGIPDRFSGSSSGNTASLTITGAQAEDEADYYCNSRDSSGNHVVFGGGTKLTVLGAAAEQKLISEEDLNGAA
# Test system: RP-HPLC KG-1 membrane fraction
# Test: Western blot with Y1 on enzyme-treated KG-1 membrane fraction
# Format: binding, human
# Source text: Y1 ligand was further characterized using enzymatic treatments with proteases, glycanases, and […]; Western blotting with Y1, anti-CD42 antibodies, anti-CD162 antibodies and 181, immunoprecipitation using Y1 and anti-CD162 antibodies; FACS analysis using Y1 anti-CD162 antibodies; and sequencing.
# The table below summarizes the biochemical experiments preformed to characterize and localize the Y1 binding site on KG-1 cells.
# Western Blot Analysis with Y1 on SDS-PAGE Reducing Gels
# The nitrocellulose membrane was blocked using 5% skim milk for one hour at room temperature. The membrane was then washed 3 times for 5 minutes each with 0.05% Tween 20 in PBS at room temperature. The membrane was incubated with 5 μg/ml Y1-biotin (or 181-biotin) in 2% skim milk in PBS for one hour at room temperature. The membrane was then washed 3 times for 5 minutes each with cold 0.05% Tween 20 in PBS in the cold room (about 4 to about 10° C.). The membrane was then incubated in the cold room with a 1:1000 dilution of SAV-HRP (streptavidin-HRP) (at a final concentration of […]) in 2% skim milk, 0.05% Tween. The dilution was carried out at room temperature (about 25° C.), then the diluted SAV-HRP was cooled on ice for 10-15 minutes before use. The incubation was carried out for 1 hour with gentle shaking. After the incubation with SAV-HRP, the membrane was washed, as above. The membrane was then incubated with Super Signal mixture (Pierce) for 5 minutes as directed in the commercial protocol, then excess solution was dried. The membrane was use to expose it to X-ray film (Fuji), and the film was developed.
molecule,measurement,setting,value
B1,Reactivity with Y1,"Mocarhagin, 7′ at 37° C.",No
same,Reactivity with Y1,"O-Sialo glycoprotein endopeptidase, 30′ at 37° C., SDS-PAGE reducing gel",Reactivity
same,Reactivity with Y1,"O-Sialo glycoprotein endopeptidase, 4 hr at 37° C.",No
same,Reactivity with Y1,"aryl-sulfatase, 18 hr at 22° C.",No
